Test results from the supplement of paper PMC7125110.
± gives the standard error. For part of these data: Fewer inactive variants are shown than the library holds.

B1: glmS ribozyme (parent)
chain: AUAAAAGCGCCAGAACUACAGAAAUGUAGUUGACGAGGAGGAGGUUUAUCGAAUUUUCGGCGGAUGCCUCCAAA

Columns and labels:
Conditions in all cases: with glucosamine-6-phosphate
glucosamine-6-phosphate [1] = variants of: B1; test: kcat; higher = faster cleavage; RNA array
In short: (§1)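 The measurements used barcoded ribozyme variants on sequenced MiSeq chips, transcribed in situ by E. coli RNA polymerase and tracked at 37 °C with a hybridised Cy3 probe. Glucosamine-6-phosphate, 40 μM to 10 mM in HEPES/KCl/Mg(OAc)2 buffer, was flowed in while tiles were imaged over ~14 h. Baseline-normalised signals, also normalised to non-cleaving reference variants, gave per-tile medians that were fit to one- or two-exponential decays for kobs. kcat and KM resulted from weighted Michaelis–Menten fits across concentrations.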

glucosamine-6-phosphate [2] = variants of: B1; test: KM; higher = weaker cofactor use; RNA array
In short: as §1

glucosamine-6-phosphate [3] = variants of: B1; test: self-cleavage kobs at 40 uM GlcN6P; higher = faster cleavage; RNA array
In short: as §1

glucosamine-6-phosphate [4] = variants of: B1; test: self-cleavage kobs at 640 uM GlcN6P; higher = faster cleavage; RNA array
In short: as §1

glucosamine-6-phosphate [5] = variants of: B1; test: self-cleavage kobs at 10000 uM GlcN6P; higher = faster cleavage; RNA array
In short: as §1

glucosamine-6-phosphate [6] = variants of: B1; test: self-cleavage kobs at 2500 uM GlcN6P; higher = faster cleavage; RNA array
In short: as §1

glucosamine-6-phosphate [7] = variants of: B1; test: self-cleavage kobs at 160 uM GlcN6P; higher = faster cleavage; RNA array
In short: as §1

Row | Variant | kcat (glucosamine-6-phosphate [1]) | KM (glucosamine-6-phosphate [2]) | self-cleavage kobs at 40 uM GlcN6P (glucosamine-6-phosphate [3]) | self-cleavage kobs at 640 uM GlcN6P (glucosamine-6-phosphate [4]) | self-cleavage kobs at 10000 uM GlcN6P (glucosamine-6-phosphate [5]) | self-cleavage kobs at 2500 uM GlcN6P (glucosamine-6-phosphate [6]) | self-cleavage kobs at 160 uM GlcN6P (glucosamine-6-phosphate [7])
1 | G32A A52C | < 1e-05 s⁻¹ | 128 ± 28 µM | < 1e-05 s⁻¹ | < 1e-05 s⁻¹ | < 1e-05 s⁻¹ |  | 
2 | G32A A52G | 0.000151 ± 1.3e-05 s⁻¹ | 1760 ± 480 µM |  | 5.19e-05 ± 2e-05 s⁻¹ | 0.000131 ± 1.5e-05 s⁻¹ | 8.18e-05 ± 1.4e-05 s⁻¹ | 
3 | C34A G51C | < 1e-05 s⁻¹ |  | < 1e-05 s⁻¹ |  | < 1e-05 s⁻¹ |  | 
4 | U31G U49C U54A G63C C68G U69G | 2.53e-05 ± 5.9e-06 s⁻¹ |  | < 1e-05 s⁻¹ |  |  |  | 
5 | U31G U56G C67U | 0.00109 ± 0.00017 s⁻¹ | 2910 ± 800 µM |  | 0.000176 ± 5.1e-05 s⁻¹ | 0.00086 ± 0.00015 s⁻¹ | 0.000493 ± 0.00014 s⁻¹ | 8.73e-05 ± 3.2e-05 s⁻¹
6 | G32A U49G | 5.97e-05 ± 1.4e-06 s⁻¹ | 741 ± 85 µM | < 1e-05 s⁻¹ | 2.83e-05 ± 1.2e-05 s⁻¹ | 5.56e-05 ± 8.3e-06 s⁻¹ | 4.58e-05 ± 1.1e-05 s⁻¹ | 
7 | G32C U47A | 4.35e-05 ± 2.1e-06 s⁻¹ | 1450 ± 320 µM |  |  | 3.77e-05 ± 9.7e-06 s⁻¹ | 2.87e-05 ± 1.3e-05 s⁻¹ | 
8 | G32C U47G | 1.21e-05 ± 1.1e-07 s⁻¹ | 403 ± 39 µM |  |  |  |  | 
9 | G32A U54A | 0.00386 ± 0.001 s⁻¹ | 3520 ± 1300 µM | 6.3e-05 ± 1.3e-05 s⁻¹ | 0.00067 ± 0.00011 s⁻¹ | 0.00286 ± 0.00045 s⁻¹ | 0.00157 ± 0.00026 s⁻¹ | 0.000125 ± 2.9e-05 s⁻¹
10 | A33U A53G | 3.38e-05 ± 6.8e-06 s⁻¹ |  | < 1e-05 s⁻¹ |  | 2.98e-05 ± 6.7e-06 s⁻¹ | 3.39e-05 ± 1e-05 s⁻¹ | 
11 | G32A C71U | 0.00395 ± 0.001 s⁻¹ | 4470 ± 1500 µM | 3.68e-05 ± 5.2e-06 s⁻¹ | 0.000487 ± 4.1e-05 s⁻¹ | 0.00326 ± 0.00033 s⁻¹ | 0.00122 ± 0.00011 s⁻¹ | 0.000159 ± 1.6e-05 s⁻¹
12 | G32A C71A | 0.000628 ± 0.00012 s⁻¹ | 2570 ± 890 µM |  | 0.000112 ± 1.6e-05 s⁻¹ | 0.00052 ± 6e-05 s⁻¹ | 0.000293 ± 4.5e-05 s⁻¹ | 5.89e-05 ± 1.2e-05 s⁻¹
13 | A33U U54A | 0.000116 ± 2e-05 s⁻¹ |  |  | 6.35e-05 ± 1.7e-05 s⁻¹ | 0.000117 ± 1.6e-05 s⁻¹ | 7.03e-05 ± 1.2e-05 s⁻¹ | 
14 | A33U U54G | 0.000139 ± 4.4e-05 s⁻¹ |  | < 1e-05 s⁻¹ | 4.57e-05 ± 1.6e-05 s⁻¹ | 0.000111 ± 1.8e-05 s⁻¹ | 5.67e-05 ± 9.8e-06 s⁻¹ | < 1e-05 s⁻¹
15 | U31G C67U | 0.00291 ± 0.00094 s⁻¹ | 1040 ± 460 µM | 0.000124 ± 9.4e-06 s⁻¹ | 0.00082 ± 0.00012 s⁻¹ | 0.00391 ± 0.00047 s⁻¹ | 0.00179 ± 0.00027 s⁻¹ | 0.000329 ± 6.4e-05 s⁻¹
16 | U31G C67A | 0.00185 ± 0.00043 s⁻¹ | 740 ± 270 µM | 0.000107 ± 1.8e-05 s⁻¹ | 0.000858 ± 0.00013 s⁻¹ | 0.00286 ± 0.00065 s⁻¹ | 0.00123 ± 0.00024 s⁻¹ | 0.000285 ± 6.9e-05 s⁻¹
17 | G32U C68G | 1.3e-05 ± 1.3e-06 s⁻¹ |  |  |  |  |  | 

Row | Variant | kcat (glucosamine-6-phosphate [1]) | KM (glucosamine-6-phosphate [2]) | self-cleavage kobs at 40 uM GlcN6P (glucosamine-6-phosphate [3]) | self-cleavage kobs at 640 uM GlcN6P (glucosamine-6-phosphate [4]) | self-cleavage kobs at 10000 uM GlcN6P (glucosamine-6-phosphate [5]) | self-cleavage kobs at 2500 uM GlcN6P (glucosamine-6-phosphate [6]) | self-cleavage kobs at 160 uM GlcN6P (glucosamine-6-phosphate [7])
18 | G32C G60A | < 1e-05 s⁻¹ |  | < 1e-05 s⁻¹ |  |  |  | 
19 | U31G U55G U56C | 0.00133 ± 0.00026 s⁻¹ | 4490 ± 1500 µM |  | 0.000162 ± 3.4e-05 s⁻¹ | 0.000948 ± 0.00012 s⁻¹ | 0.000395 ± 9.8e-05 s⁻¹ | 7.22e-05 ± 2.4e-05 s⁻¹
20 | G35U G59U G66U | < 1e-05 s⁻¹ |  |  | < 1e-05 s⁻¹ |  |  | 
21 | U31G U49G | 0.000191 ± 2.6e-06 s⁻¹ | 2140 ± 89 µM |  | 4.38e-05 ± 1.9e-05 s⁻¹ | 0.000157 ± 1.4e-05 s⁻¹ | 0.000102 ± 1.4e-05 s⁻¹ | 
22 | U31G G37U | < 1e-05 s⁻¹ |  |  |  |  |  | 
23 | A33C G66A | 0.000291 ± 4.1e-05 s⁻¹ | 2470 ± 580 µM |  | 6.35e-05 ± 9.2e-06 s⁻¹ | 0.000257 ± 4.6e-05 s⁻¹ | 0.00013 ± 2.3e-05 s⁻¹ | 
24 | G32A C58U | 6.81e-05 ± 1.1e-05 s⁻¹ |  | < 1e-05 s⁻¹ | 3.37e-05 ± 1.6e-05 s⁻¹ | 6.46e-05 ± 1.3e-05 s⁻¹ | 4.13e-05 ± 1.1e-05 s⁻¹ | 
25 | A36G U55C | 1.01e-05 ± 4e-06 s⁻¹ |  |  |  |  |  | 
26 | U31G U45A | 0.0285 ± 0.0073 s⁻¹ | 2180 ± 720 µM | 0.000531 ± 0.00011 s⁻¹ | 0.00653 ± 0.0013 s⁻¹ | 0.0291 ± 0.0063 s⁻¹ | 0.0105 ± 0.0037 s⁻¹ | 0.00206 ± 0.0004 s⁻¹
27 | A33U U65A | 3.37e-05 ± 1.5e-06 s⁻¹ |  | < 1e-05 s⁻¹ | < 1e-05 s⁻¹ |  |  | < 1e-05 s⁻¹
28 | G35A G38U | < 1e-05 s⁻¹ |  |  |  |  |  | < 1e-05 s⁻¹
29 | G35A G38C | < 1e-05 s⁻¹ |  |  | < 1e-05 s⁻¹ |  |  | 
30 | U31G U47A | 0.00848 ± 0.0027 s⁻¹ | 2290 ± 990 µM | 0.000201 ± 2.8e-05 s⁻¹ | 0.00211 ± 0.00035 s⁻¹ | 0.00821 ± 0.0011 s⁻¹ | 0.00332 ± 0.00063 s⁻¹ | 0.000474 ± 7e-05 s⁻¹
31 | C34U G60C | < 1e-05 s⁻¹ |  | < 1e-05 s⁻¹ |  |  |  | 
32 | C34G C67U | < 1e-05 s⁻¹ |  |  | < 1e-05 s⁻¹ |  |  | 
33 | G32C A48U | < 1e-05 s⁻¹ |  | < 1e-05 s⁻¹ |  |  |  | 
34 | A36G C68G | 1.27e-05 ± 2.3e-06 s⁻¹ |  |  |  |  |  | 
